One may read the stoichiometry N as the number of molecules, sites or subunits per partner or assembly.

Experiment [1] addresses rice RAD51A2 (japonica cultivar Nipponbare), His6 tag removed (Oryza sativa (japonica cultivar Nipponbare)). Briefly: SEC; Superdex 200 GL 10/300; 70 µg protein incubated 30 min at room temperature without nucleotide (the printed oligomer sizes), with 1 mM ATP (apparent sizes drastically increased) or with 1 mM ADP (no such change); elution in 20 mM HEPES-NaOH pH 7.5, 400 mM NaCl, 0.1 mM EDTA, 2 mM 2-mercaptoethanol, 1 mM MgCl2; apparent molecular sizes.

Experiment [2] deals with rice RAD51A1 (japonica cultivar Nipponbare), His6 tag removed (Oryza sativa (japonica cultivar Nipponbare)). The experiment is described as above.

Take “rice RAD51A2 (japonica cultivar Nipponbare), His6 tag removed (natural protein)”: in experiment [1], the stoichiometry N is 5 -mer.

Regarding “rice RAD51A1 (japonica cultivar Nipponbare), His6 tag removed (natural protein)”, the stoichiometry N in experiment [2] is 8 -mer.
